Reference: IntAct's records for PubMed 9468139

B1: Retinoblastoma-associated protein (Homo sapiens), P06400 (parent)
chain: MPPKTPRKTAATAAAAAAEPPAPPPPPPPEEDPEQDSGPEDLPLVRLEFEETEEPDFTALCQKLKIPDHVRERAWLTWEKVSSVDGVLGGYIQKKKELWGICIFIAAVDLDEMSFTFTELQKNIEISVHKFFNLLKEIDTSTKVDNAMSRLLKKYDVLFALFSKLERTCELIYLTQPSSSISTEINSALVLKVSWITFLLAKGEVLQMEDDLVISFQLMLCVLDYFIKLSPPMLLKEPYKTAVIPINGSPRTPRRGQNRSARIAKQLENDTRIIEVLCKEHECNIDEVKNVYFKNFIPFMNSLGLVTSNGLPEVENLSKRYEEIYLKNKDLDARLFLDHDKTLQTDSIDSFETQRTPRKSNLDEEVNVIPPHTPVRTVMNTIQQLMMILNSASDQPSENLISYFNNCTVNPKESILKRVKDIGYIFKEKFAKAVGQGCVEIGSQRYKLGVRLYYRVMESMLKSEEERLSIQNFSKLLNDNIFHMSLLACALEVVMATYSRSTSQNLDSGTDLSFPWILNVLNLKAFDFYKVIESFIKAEGNLTREMIKHLERCEHRIMESLAWLSDSPLFDLIKQSKDREGPTDHLESACPLNLPLQNNHTAADMYLSPVRSPKKKGSTTRVNSTANAETQATSAFQTQKPLKSTSLSLFYKKVYRLAYLRLNTLCERLLSEHPELEHIIWTLFQHTLQNEYELMRDRHLDQIMMCSMYGICKVKNIDLKFKIIVTAYKDLPHAVQETFKRVLIKEEEYDSIIVFYNSVFMQRLKTNILQYASTRPPTLSPIPHIPRSPYKFPSSPLRIPGGNIYISPLKSPYKISEGLPTPTKMTPRSRILVSIGESFGTSEKFQKINQMVCNSDRVLKRSAEGSNPPKPLKKLRFDIEGSDEADGSKHLPGESKFQQKLAEMTSTRTRMQKQKMNDSMDTSNKEEK

Variants of: B1
Details: with hdac1_human HDAC1, Q13547
Sequence of hdac1_human HDAC1, Q13547 (Q13547 whole entry): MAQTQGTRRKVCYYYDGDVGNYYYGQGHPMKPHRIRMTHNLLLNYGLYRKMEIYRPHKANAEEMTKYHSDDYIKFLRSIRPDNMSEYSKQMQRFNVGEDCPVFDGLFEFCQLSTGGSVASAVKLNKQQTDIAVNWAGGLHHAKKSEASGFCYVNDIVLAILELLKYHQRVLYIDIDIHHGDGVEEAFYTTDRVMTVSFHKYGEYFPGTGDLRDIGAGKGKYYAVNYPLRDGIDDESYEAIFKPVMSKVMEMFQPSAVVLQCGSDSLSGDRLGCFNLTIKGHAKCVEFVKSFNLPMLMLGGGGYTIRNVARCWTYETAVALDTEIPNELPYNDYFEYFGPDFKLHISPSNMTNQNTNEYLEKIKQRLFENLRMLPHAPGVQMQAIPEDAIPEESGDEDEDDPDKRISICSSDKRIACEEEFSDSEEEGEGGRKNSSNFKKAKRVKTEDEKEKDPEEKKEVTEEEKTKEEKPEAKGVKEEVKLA

Row | effect of a mutation on the interaction | Variant
1 | decreasing interaction | C706F
